Source: patent publication US20240181075A1 (published 2024)
One block for each binder: values may come before it.

Key:
Mouse N4 [1] = experiment: flow cytometry, transfected CHO cells
Monkey N4 = experiment: flow cytometry, transfected CHO cells
Rat N4 [2] = experiment: flow cytometry, transfected CHO cells
[3] = biological target: T1, human Nectin-4 on cells (CHO cells transfected with human Nectin-4 cDNA); SUM190 tumor cells; normal … (human, UniProt Q96NY8 32-510); experiment: flow
T1 chain: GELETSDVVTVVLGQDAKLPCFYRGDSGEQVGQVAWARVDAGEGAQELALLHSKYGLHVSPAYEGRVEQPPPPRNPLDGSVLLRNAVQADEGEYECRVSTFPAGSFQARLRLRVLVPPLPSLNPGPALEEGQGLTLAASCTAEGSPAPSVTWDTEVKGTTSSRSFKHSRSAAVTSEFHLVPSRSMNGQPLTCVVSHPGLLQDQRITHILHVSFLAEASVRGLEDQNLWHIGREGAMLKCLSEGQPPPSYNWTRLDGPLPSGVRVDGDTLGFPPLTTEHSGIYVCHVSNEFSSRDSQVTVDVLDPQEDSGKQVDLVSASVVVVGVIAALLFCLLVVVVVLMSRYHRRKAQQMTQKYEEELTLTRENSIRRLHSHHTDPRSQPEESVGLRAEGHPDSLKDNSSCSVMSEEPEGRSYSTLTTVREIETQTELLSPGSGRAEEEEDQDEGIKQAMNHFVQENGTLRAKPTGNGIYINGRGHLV

[4] = biological target: T1, human Nectin-4 on cells (CHO cells …); experiment: flow cytometry, transfected CHO cells
Mouse N4 [5] = experiment: flow cytometry, transfected CHO cells; ambiguous fit
Rat N4 [6] = experiment: as above

EC50 (Mouse N4 [1]): 41.1 nM
EC50 (Monkey N4): 0.0678 nM
EC50 (Rat N4 [2]): 0.097 nM
B1: HA22 (antibody, V domains shown)
VH: EVQLVESGGGLVQPGGSLRLSCAASGFTFSSYNMNWVRQAPGKGLEWVSYISSSSSTIYYADSVKGRFTISRDNAKNSLSLQMNSLRDEDTAVYYCARAYYYGMDVWGQGTTVTVSS
VL: DIQMTQSPSSVSASVGDRVTITCRASQGISGWLAWYQQKPGKAPKFLIYAASTLQSGVPSRFSGSGSGTDFTLTISSLQPEDFATYYCQQANSFPPTFGGGTKVEIK

EC50 [3]: 0.346 nM
B2: HA22 (Enfortumab), human monoclonal anti-Nectin-4 antibody (antibody, V domains shown)
VH: B1 VH
VL: B1 VL

EC50 [4]: 2.83 nM
B3: Ch-3A1.4 (antibody, V domains shown)
VH: DVQLQESGPSLVKPSQTLSLTCSVTGDSITSGYWNWIRKFPGNKLEYMGYISNSGITYYNPSLKSRISITRDTSKNQYFLQLNSVTAEDTATYYCTRFGSTMILYYTMDYWGQGTSVTVSS
VL: DIVMTQSPVTLSVTPGDRVSLSCRASQSISDYLHWYQQKSQESPRLLIKYASKSISGIPSRFSGSGSGSNFTLSINSVEPEDVGVYYCQNGHSFPLTFGAGTKLELK

EC50 (Monkey N4): 0.134 nM
EC50 (Rat N4 [2]): 0.478 nM
EC50 (Mouse N4 [5]): ~205 nM
B4: Ch-5A12.2 (antibody, V domains shown)
VH: QIQLQQSGAELVKPGASVTLSCKTSGFTFNSMYISWLKQKPGQSLEWIAWIYAGTGGTRFNQKFTGKVQLTVDTSSSTAYMQFSSLTTDDSAIYYCAIRSGFVPMDYWGQGTSVTVSS
VL: SIVMTQTPKFLLVSAGDRVTITCKASQSVSNDVAWYQQKPGQSPKLLIYYASNRYTGVPDRFTGSGYGTDFTFTISTVQAEDLAVYFCQQDYSSPWTFGGGTKLEIK

EC50 [4]: 0.37 nM
B5: Ch-5A12.2 (chimeric anti-Nectin-4 monoclonal antibody 5A12.2) (antibody, V domains shown)
VH: B4 VH
VL: B4 VL

EC50 (Monkey N4): 1.22 nM
EC50 (Mouse N4 [5]): ~31.2 nM
EC50 (Rat N4 [6]): ~5.16 nM
B6: Ch-15A7.5 (antibody, V domains shown)
VH: EVKLVESGGGLVQPGGSRKLSCAASGFTFSNYGMAWVRQAPGKGPEWVAFISNLAYGINYADTVTGRFTISRENAKNTLYLEMRSLRSEDTAMYYCARGARATGWFAYWGQGTLVTVSA
VL: DIVMTQSQKFMSTSIGDRVSVTCKASQNVDTHVAWYQEKPGQSPKALIYSASYRYSGVPDRFTGSGSGTDFTLTISNVQSEDLADYFCQQYNSYPLTFGGGTKLEIK

EC50 [4]: 0.692 nM
B7: Ch-15A7.5 (chimeric anti-Nectin-4 monoclonal antibody 15A7.5) (antibody, V domains shown)
VH: B6 VH
VL: B6 VL
